These results are taken from US7078174B1, “Screening methods using SOCS box-containing peptides” (The Walter & Eliza Hall Institute of Medical Research, priority 1998, dated 2006).

The target of assay [1] is T1, endogenous elongins B and C (Mus musculus, UniProt P62869+P83940).
T1 construct: endogenous in cells; host or cells: M1 murine monocytic leukemic cells
Briefly: Interaction of FLAG-tagged SOCS-1 with endogenous elongins in M1 cells (anti-FLAG resin, Western blot). In kind it is binding, murine. The settings on record: M1 cells stably expressing FLAG-tagged protein, anti-FLAG immunoprecipitation. The protocol:
Two liters of M1 cells stably expressing either full-length SOCS-1 or SOCS-1 lacking SOCS box (with N-terminal FLAG epitopes) were grown in DME containing 5% bovine calf serum, 10 μg/ml puromycin and 50 ng/ml murine IL-6. The cells were harvested and incubated in 20 ml of culture media containing 10 μM proteasome-specific inhibitor, N-acetyl-L-leucinyl-L-leucinyl-norleucinal (LLnL; Sigma, St. Louis, Mo.) for 30 min at 37° C. The cells were lysed in 14 ml of lysis buffer supplemented with protease inhibitors (Complete Cocktail tablets), 1 mM PMSF, 1 mM Na3VO4, 1 mM NaF and 10 μM LLnL. Total cell lysates were centrifuged at 15,000 rpm (SS34 rotor) for 15 min at 4° C. and the clarified supernatants incubated with 0.3 ml of M2 anti-FLAG antibody resin for 3 h at 4° C. Resin was then washed with 10 ml of lysis buffer and the bound proteins were eluted with 6×150 μl of 100 μg/m FLAG peptide in lysis buffer.
(§1) Proteins were immunoprecipitated with anti-myc (9E10; WEHI) and protein A-Sepharose or anti-FLAG antibody conjugated to Sepharose (KM5-IC7; WEHI) and separated by sodium dodecyl sulphate-polyacrylamide gel electrophoresis (SDS-PAGE) (Biorad, Hercules, Calif.) under reducing conditions. Proteins were then electrophoretically transferred to PVDF-Plus membranes (Micron Separations Inc. WestBorough, Mass.) and Western blotted as described (8).
A general note: In western blotting, separated proteins are transferred to a membrane and probed.

For assay [2], the system named is elongin B, elongin C, cullin 2, JAK1, gp130. Briefly: Analysis of proteins interacting with SOCS-1 in unstimulated M1 cells (anti-FLAG affinity column, Western blot). Format: binding, murine. The settings on record: 10^9 unstimulated M1 cells, anti-FLAG affinity column eluate. An excerpt:
The inventors passed lysates from 10^9 unstimulated M1 cells expressing FLAG-tagged SOCS-1 through an anti-FLAG affinity column which was then eluted with FLAG peptide. The eluate was then subjected to SDS-PAGE and the proteins were Western blotted. The blot was then probed with anti-FLAG antibodies to confirm the presence of SOCS-1 and with a range of antibodies against proteins thought to interact with SOCS-1 (FIG. 7). […] To determine whether proteins in this complex interact directly or indirectly with SOCS-1, or whether all the proteins can be found together in a single complex, or whether separate complexes are, for example, formed between SOCS-1, JAK-1 and gp130 on one hand and between SOCS-1, elongin B and C and cullin-2, is addressed in part by performing the primary immunoprecipitation using a different antibody.
Further, the nature of the complex is analyzed by repeating experiments using a mutant SOCS protein which lacks one or more domains. In the case described above, the inventors have performed an identical analysis using M1 cells expressing a FLAG-tagged mutant of SOCS-1 lacking the SOCS box. […] This type of experiment addresses whether interactions are direct or indirect. Further analysis involves approaches of the type described below.

The next assay deals with T2, elongins B and C (Mus musculus, UniProt P62869+P83940).
T2 construct: expressed in transfected cells; host or cells: 293T human fibroblast cell line, vector pEF-BOS
T2 sequence (P83940 whole entry): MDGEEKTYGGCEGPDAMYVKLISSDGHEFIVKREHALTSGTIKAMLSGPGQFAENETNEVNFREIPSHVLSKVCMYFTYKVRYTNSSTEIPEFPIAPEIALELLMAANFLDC
T2 sequence (P62869 whole entry): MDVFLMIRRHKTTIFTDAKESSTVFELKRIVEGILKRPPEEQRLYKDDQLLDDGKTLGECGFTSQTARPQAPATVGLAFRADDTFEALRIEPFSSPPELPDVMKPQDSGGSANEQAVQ
Briefly: Co-transfection of 293T cells with SOCS box proteins and elongins B and C, co-immunoprecipitation. Format: binding. The settings on record: anti-myc immunoprecipitation, anti-FLAG Western blot.
Source text: The cDNAs encoding mouse SOCS-1, SOCS-3, WSB-1, SSB-1, ASB-1, have been described previously (1,8). Constructs in pEF-FLAG1 encoding these proteins, with or without the SOCS box, with an N-terminal FLAG epitope tag (DYKDDDDK) (SEQ ID NO:1) were generated by PCR essentially as described (8) (found at http://www.wehi.edu.au/willson vectors). DNA fragments encoding mouse elongins B and C were amplified using PCR from a 17-day embryo cDNA lambda library (Clontech ML5014t) and were expressed with N-terminal FLAG or myc (DQKLISEEDL) (SEQ ID NO:2) epitope tags, respectively, using the mammalian expression vector pEF-BOS.
The murine monocytic leukemic cell line, M1, and the 293T human fibroblast cell line were maintained and transfected as described (8).
as §1

T1 sequence (P83940 whole entry): as the sequence (P83940 whole entry) above
T1 sequence (P62869 whole entry): as the sequence (P62869 whole entry) above

B1: full-length SOCS-1: N-terminally FLAG-tagged full-length mouse SOCS-1 stably expressed in M1 cells (protein)
chain: DYKDDDDKMVARNQVAADNAISPAAEPRRRSEPSSSSSSSSPAAPVRPRPCPAVPAPAPGDTHFRTFRSHSDYRRITRTSALLDACGFYWGPLSVHGAHERLRAEPVGTFLVRDSRQRNCFFALSVKMASGPTSIRVHFQAGRFHLDGSRETFDCLFELLEHYVAAPRRMLGAPLRQRRVRPLQELCRQRIVAAVGRENLARIPLNPVLRDYLSSFPFQI
On to B1, for which, in assay [1], the “association with endogenous elongins B and C” value was “associated with bound elongins B and C”. Besides, the “complex formation with elongin B, elongin C, cullin 2, JAK1 and gp130” value in assay [2] was “capable of forming a complex with elongin B and elongin C, cullin 2, as well as JAK1 and gp130”.

B2: WSB-2: N-terminally FLAG-tagged WSB-2 protein transfected into 293T fibroblasts (protein)
chain: DYKDDDDKMEAGEEPLLLAELKPGRPHQFDWKSSCETWSVAFSPDGSWFAWSQGHCVVKLVPWPLEEQFIPKGFEAKSRSSKNDPKGRGSLKEKTLDCGQIVWGLAFSPWPSPPSRKLWARHHPQAPDVSCLILATGLNDGQIKIWEVQTGLLLLNLSGHQDVVRDLSFTPSGSLILVSASRDKTLRIWDLNKHGKQIQVLSGHLQWVYCCSISPDCSMLCSAAGEKSVFLWSMRSYTLIRKLEGHQSSVVSCDFSPDSALLVTASYDTSVIMWDPYTGERLRSLHHTQLEPTMDDSDVHMSSLRSVCFSPEGLYLATVADDRLLRIWALELKAPVAFAPMTNGLCCTFFPHGGIIATGTRDGHVQFWTAPRVLSSLKHLCRKALRSFLTTYQVLALPIPKKMKEFLTYRTF
In the case of B2, in the assay with elongins B and C, the “co-immunoprecipitation with elongin C (and elongin B)” value is reported as “found to co-immunoprecipitate along with elongin B with elongin C”.

B3: SSB-1: N-terminally FLAG-tagged SSB-1 protein transfected into 293T fibroblasts (protein)
chain: DYKDDDDKMGQKVTGGIKTVDMRDPTYRPLKQELQGLDYCKPTRLDLLLDMPPVSYDVQLLHSWNNNDRSLNVFVKEDDKLIFHRHPVAQSTDAIRGKVGYTRGLHVWQITWAMRQRGTHAVVGVATADAPLHSVGYTTLVGNNHESWGWDLGRNRLYHDGKNQPSKTYPAFLEPDETFIVPDSFLVALDMDDGTLSFIVDGQYMGVAFRGLKGKKLYPVVSAVWGHCEIRMRYLNGLDPEPLPLMDLCRRSVRLALGKERLGAIPALPLPASLKAYLLYQ
Consider B3, for which the “co-immunoprecipitation with elongin C (and elongin B)” value with elongins B and C was “found to co-immunoprecipitate along with elongin B with elongin C”.
